Experimental data: US20090246142

Key:
[1] = biological target: T1, MMP-7 substrate G-K(TAMRA)-G-V-P-L-S-L-T-M-G-C-CONH2 with 20 kDa PEG, on receptor (NeutrAvidin) TSACs (Example 3) (not fully specified)
T1 chain: GKGVPLSLTMGC

[2] = biological target: T2, MMP-7-MMP-2 tandem substrate TAMRA-G-K-G-V-P-L-S-L-T-M-Ahx-G-P-L-G-V-R-G-C-CONH2 with 20 kDa PEG, on ligand (biotin) TSACs (Example 3) (not fully specified)
T2 chain: GKGVPLSLTMGPLGVRGC

[3] = biological target: T3, MMP-2 substrate G-K(TAMRA)-G-P-L-G-V-R-G-C-CONH2 with 20 kDa PEG, on ligand (biotin) TSACs (Example 3) (not fully specified)
T3 chain: GKGPLGVRGC

B1: catalytic domain of matrix metalloproteinase-7 (MMP-7; Biomol) (protein)
chain: YSLFPNSPKWTSKVVTYRIVSYTRDLPHITVDRLVSKALNMWGKEIPLHFRKVVWGTADIMIGFARGAHGDSYPFDGPGNTLAHAFAPGTGLGGDAHFDEDERWTDGSSLGINFLYAATHELGHSLGMGHSSDPNAVMYPTYGNGDPQNFKLSQDDIKGIQKLYGKRSNSRKK
- TSAC assembly in DLS [1]: addition of 0.4 µg MMP-7 induces assembly, while 0.4 µg MMP-2 cannot
- hydrodynamic radius increase in DLS [2]: Hydrodynamic radii increased more than 5-fold in the presence of either enzyme or both enzymes
- TSAC assembly in DLS [3]: Addition of 0.4 µg MMP-2 actuates TSAC assembly, while 0.4 µg MMP-7 or no enzyme is insufficient
